# Earlier results in patent US8278280B2, “Antagonists of the bradykinin B1 receptor” (priority 2003, dated 2012).
# Molecular target: T1, B2 receptors (Homo sapiens, UniProt P30411)
# T1 sequence (P30411 1-391): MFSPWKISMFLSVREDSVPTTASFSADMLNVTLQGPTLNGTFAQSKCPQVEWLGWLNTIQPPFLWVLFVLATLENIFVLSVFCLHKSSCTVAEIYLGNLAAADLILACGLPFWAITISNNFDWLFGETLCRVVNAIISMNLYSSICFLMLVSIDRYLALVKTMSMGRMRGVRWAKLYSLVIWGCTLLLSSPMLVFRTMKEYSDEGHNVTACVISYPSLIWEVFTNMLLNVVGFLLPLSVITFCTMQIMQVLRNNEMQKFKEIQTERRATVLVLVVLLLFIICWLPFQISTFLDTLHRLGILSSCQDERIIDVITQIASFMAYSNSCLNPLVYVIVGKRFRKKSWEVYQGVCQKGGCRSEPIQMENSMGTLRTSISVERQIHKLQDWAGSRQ
substance,measurement,value
"Arg Pro Pro Gly Phe Ser Pro Phe (RPPGFSPF; listed as Homo sapiens) [des-Arg-BK, B1 Agonist]",activity at B2 receptors,inactive
